Results as given in the supplement of paper PMC12764529.
± gives the half width of the 95% confidence interval.

Legend:
[1] = folding stability dG unfold (combined trypsin and chymotrypsin); higher = more stable
Procedure, shortened: (§1)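 Designed mini-proteins (under 80 residues, no cysteine) in a PA-tagged cDNA display construct were digested with trypsin and chymotrypsin. Each protease was used at 11 concentrations (threefold dilutions) plus a no-protease condition, followed by sequencing. K50 was inferred by Bayesian fitting of sequencing counts, and unfolding free energy was derived against a sequence-predicted unfolded-state K50 and a shared folded-state K50, per protease or combined. Only designs with AlphaFold2 dimer inter-PAE above 15 were kept.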

[2] = folding stability dG unfold from trypsin proteolysis; higher = more stable
Procedure, shortened: as §1

[3] = folding stability dG unfold from chymotrypsin proteolysis; higher = more stable
Procedure, shortened: as §1

Sequence | folding stability dG unfold [1] [kcal/mol] | folding stability dG unfold [2] [kcal/mol] | folding stability dG unfold [3] [kcal/mol]
SAGKEVEIKIEIVIKMTPEELKKLAEELAKKLKEAGFEVEVTVEEKEVNGELYAVITVTVRLPPGAKPPSAG [r5_217_TrROS_Hall] | 3.67 ± 0.42 | 2.81 ± 0.36 | 4.11 ± 0.26
SAGGSMPVEIKLLEEEVLPDGVTIKKVKAEDGSEMTVTVTKLPGNTYKVTITNPANGTTSTFTLPESAGGSA [r2_361_JUSTAS] | 1.45 ± 0.077 | 0.932 ± 0.035 | 1.73 ± 0.055
SATITVHNPWNGQPIEIRIDPGMTPEEIKKKIEKVPGIPPGTRDAVEKAIEYFEAYRQNPEQRKKLKKESAG [r14_732_TrROS] | 0.675 ± 0.13 | 0.241 ± 0.093 | 0.934 ± 0.096
SMETPPEELVERVREYLASQGYTVTSVEVTPLPDGSVRVEVTATPPDASTTLTITVTVPPDGTVVVEVTAQS [r1_460_JUSTAS] | 5.3 ± 0.15 | 3.76 ± 0.2 | 5.26 ± 0.12
SAGGSAGGSFEFPENRPNAKVKVVVQRPDGSPEEFEAEVLPDGTVTLDLPDYPIDRILSVEFGSAGGSAGGS [r12_477_TrMRF] | -0.221 ± 0.17 | 0.0306 ± 0.12 | -0.377 ± 0.19
SAGGKYKVEIIDPKEGEKVFIEIDEETKKITIWNAKTGEKVAEFEIKDLKEGDTITLPNGFVIKIEKESAGG [r13_720_TrROS_Hall] | 4.61 ± 0.12 | 3.67 ± 0.14 | 4.67 ± 0.079
SAGQLPPGETYTAEIEIRKNEPITLEEIAKKLPGYEFDSVKVEPMPDGWTRITITMTPGDVDKIQDAIRSAG [r5_554_TrROS] | 1.65 ± 0.092 | 0.92 ± 0.044 | 1.87 ± 0.031
SAGGSAGGSAGKKYLIKIEVEKNGKKYTITMSLEELKKLISSPNVKIVKIEIVEVSEEDLSAGGSAGGSAGG [r17_204_TrROS_Hall] | 4.98 ± 0.11 | 4.33 ± 0.15 | 5 ± 0.07
SAGGSAKEIKIEVVKVEYDKETKKVTVTLKIEVNGKKIEIKIEVDMTPEEVEEKVKKLAEELLKKLSAGGSA [r15_979_TrROS_Hall] | 3.14 ± 0.25 | 3.15 ± 0.2 | 3.03 ± 0.14
SAVPAEGMSPEEAAALAEEVREAFEAEVKAAGGPIPADTVVTVDYALEGSPVTITLTFTTPDSVSTTVASAG [r14_501_JUSTAS] | 0.906 ± 0.06 | 1.12 ± 0.045 | 0.57 ± 0.079
SAGGSAGGSAMYVKVTFTYPDGSTTTVTTQLDEEEAKKLVEELAPLPVEAKLEIIPEDVPESAGGSAGGSAG [r3_35_JUSTAS] | 0.655 ± 0.17 | 0.344 ± 0.073 | 0.249 ± 0.23
SAGGGMSEEYVKKLFESLGFTKLETREYPGLKVTTFSAKDLTVVAYPDGTIEIFDKNGNLIKTDKGLSAGGS [r8_147_JUSTAS] | 1.54 ± 0.049 | 1.06 ± 0.021 | 1.82 ± 0.03
SSMYLLTVEITRPDGSVSSKTVPVNFAPGTTIDELLKALNLPKSSLATVTVTATEYSGGPPVTSTHTITLSA [r9_755_JUSTAS] | 2.34 ± 0.06 | 2.02 ± 0.065 | 2.44 ± 0.052
SAGKPNIVVHPEYEQEKDPGDPGQPRIREMRVRVYLPNGRPITFRYRSPEDAVDRLLKRIQENPDLLKSAGG [r19_123_TrROS] | 2.07 ± 0.19 | 1.79 ± 0.12 | 2.11 ± 0.13
SAGGSAGGSAGGMKIVFLGKKALIENENGEVTEIPVGSLEEFEKLAEAFPDYEAVPAVPSAGGSAGGSAGGS [r10_1211_TrMRF] | 1.31 ± 0.051 | 0.888 ± 0.025 | 1.5 ± 0.029
SKKKVKTETVTLKIVNEKTGEEVELTLEFYEDGTVVKVTFPDGTTKEIKVGKTLEELLSLPPNAKIELIPSA [r9_781_TrROS_Hall] | 1.56 ± 0.11 | 0.315 ± 0.12 | 2 ± 0.11
SAMKLTVSSSSPEEAQAQAEALKAQLRAELAAAGHPGAEVPVEITVTAVPPPVPVDVADPTSDRWSPTPSAG [r14_475_JUSTAS] | 0.393 ± 0.07 | 0.804 ± 0.033 | -0.694 ± 0.18
SAGGSAGGSSPVRTLTIPTENLTPEEILELVKNNPVDSVVLNADSEEEEKLKEELKKAGIKVLSAGGSAGGS [r12_610_JUSTAS] | -0.0698 ± 0.098 | -0.501 ± 0.071 | 0.138 ± 0.15
SAGGSAGGSAPATITSIEVEERTGPDGRTYRVLRVRLADTGEEVEIVVPGMSLEEVLAALASSAGGSAGGSA [r18_345_TrROS_Hall] | 2.93 ± 0.082 | 2.86 ± 0.031 | 2.937 ± 0.019
SAGGMVYVVRLRDEDGTEYTALVEEFDGIYRVRLFDEDGELVEEREFESVEEAIDALLAEGYEVEVYPSAGG [r13_315_TrMRF] | 4.66 ± 0.07 | 4 ± 0.079 | 4.881 ± 0.035
SAGGSAGGSAMTPPEELKEKIAAEVSPDTTVTETFPEEPLVVKITRNPSGTITVEVVSPEELSAGGSAGGSA [r18_61_JUSTAS] | 0.546 ± 0.088 | -0.418 ± 0.11 | 0.906 ± 0.049
